{
  "source": "the DeepSol protein solubility set",
  "data": [
    {"test": "soluble on expression in E. coli; label from the status in PepcDB or PDB records", "values": [
      {"sequence": "MGSDKIHHHHHHMIPWVISPYSFDGSVVRFEKLALLLKRKGLKSVILADRNFHAAVKFNTIMRKHGLIPVHGLWKDGRIFVARNREEFDSLVRYYNGETHEIEDIPVFQESELTPVRYLDASEKKASIFMRKIFGLDEDVQGFPEKCEDVADILNAEAYDLRVNHRFPTPPKNWNELLIKKAEPLGEEYISRLKRELEVIKRKGFTPYIYTVEKVVEIAKKMGIKVGPGRGSAVGSLVAYLCGITEVDPIKYDLLFERFLNEERQEPPDIDVDVEDRRRKDLIKELSKSFQVYQVSTFGNLTEKSLKNLINSVLPDASLEEKNEIYKTVYGLPHHPSVHAAGVVISENPLPLPTRTEEDIPITDYDMYDLQEIGVVKIDILGLKTLSFIKDFKKEIFDYSDEKTYHLISKGKTLGVFQLEGLQARKLCRRISPRNMDELSILLALNRPGPLRSGLDVMFSNSKNVPAFFRKMFPETRGVLIYQEQIMRLAMFAGLSGTEADILRRAIAKKEREKMEPLLEKMKKGLLEKGMENAEQILEILLNFSSYAFNKSHSVAYAHITYQTAYLKAHHLEEFFKLYFAYNSSDAGKIFLAVQELRNEGYRVHPPDINISGKDLVFHGKDVYLPLTVVKGVGVTLVEQIEKIRPVSSVRELQERVTGVPRNVVESLITAGAFDKLYENRKLALEELNKRVEKDILEIRSLFGEKVEQESSNIKIGDITELEEKSMGFPLTPVHEVPTGLFARIDDVFTYGRILPVLVKRVSRNIVTDGLSVCRVRTDVPDGVHLVLLSPLQKIIKIWPFNENTRFVYRVDFTATLEKAGQNEITEVLKNGAVVRYEGYRPLTDEYRYRVVPR", "soluble on expression in E. coli": "not soluble"},
      {"sequence": "MGSDKIHHHHHHMIRAGIIGATGYTGLELVRLLKNHPEAKITYLSSRTYAGKKLEEIFPSTLENSILSEFDPEKVSKNCDVLFTALPAGASYDLVRELKGVKIIDLGADFRFDDPGVYREWYGKELSGYENIKRVYGLPELHREEIKNAQVVGNPGCYPTSVILALAPALKHNLVDPETILVDAKSGVSGAGRKEKVDYLFSEVNESLRPYNVAKHRHVPEMEQELGKISGKKVNVVFTPHLVPMTRGILSTIYVKTDKSLEEIHEAYLEFYKNEPFVHVLPMGIYPSTKWCYGSNHVFIGMQMEERTNTLILMSAIDNLVKGASGQAVQNMNIMFGLDETKGLEFTPIYP", "soluble on expression in E. coli": "soluble"},
      {"sequence": "MGSDKIHHHHHHMIRDNIMSQIDLPTDFDFQQAGRQVLEIEREGLAQLDQYINEDFTHACETIFRCGGKVVVMGMGKSGHIGRKMAATFASTGTSAFFVHPGEAAHGDLGMVTPQDVVIALSNSGESNEILALIPVLKRQQVKLICITSRPESSMARAADIHLCVKVPKEACPLGLAPTSSTTAALVMGDALAVALLEARGFTAEDFALSHPGGALGRKLLLRVNDIMHTGDEIPHVGLQATLRDALLEITRKNLGMTAICDDDMNIIGIFTDGDLRRVFDTGVDMRDASIADVMTRGGIRIRPGTLAVDALNLMQSRHITCVLVADGDHLLGVVHMHDLLRAGVV", "soluble on expression in E. coli": "not soluble"},
      {"sequence": "MGSDKIHHHHHHMIRVIDCTLREGCQARQCSFDSAQSVQLAREIAALGVDMIECGHPRISADERERVRAVVAAVSTPVLAHARARREDIDAVLETGAQWVGLFASINAISLETKFKGMNREEVLELFHDAIRYARERGLRVRATVEDAARTSVSDLVSMIATARDAGADRICFADSVGILLPDETFDVLSLLRHEFPDVVFEYHVHNDRGLALGNTLAAIQAGVQWHSASCNGIGERAGITDTFQLLTLLHTKFAADRFNLKNVLAVSELVEAHSRIKRSPMHPVVGENAFVHVARLHQLAMQENQDAYSAFDPELINGRVSLQRYTPMHRQSLFLTPFEKSASELKYHRHGPGKRFVMLDRRLLDGSPFYFIARQFHDVGDGGPGHVDSHVHNCDSVFLFLGSDEDYRGLEVEVLLGGQLRRLQSPASVFIPAGVEHSYRYLGGSGTYINFVHKGDYHESLLEITQ", "soluble on expression in E. coli": "not soluble"},
      {"sequence": "MGSDKIHHHHHHMITENIKKEILRRIRNAEKEHNVKVLYAVESGSRAWGFESPNSDYDVRFIYAHPKDWYVSVDLEYKRDVIEYEIVDEIDINGWDIRKALQLFSKSNPAFVEWIQSSIVYVDDHSFAKGARQLLDTVYSVEKGIYHYRSMAKTNYRGYLKEEIVPIKKYFYVLRPLLSIMWLEKYQKPAPIEFVKLRTLIPTGSTIDQAISDLLERKKRSLEKEYAPAVPVLNAFIESELDRLENYQDSPQRNSSHMESLNSLFRVSIS", "soluble on expression in E. coli": "not soluble"},
      {"sequence": "MGSDKIHHHHHHMITRIEAYKYRCFNTLDLALEQQHVFAGSNGSGKTTLLDIPALFGDLLNMSDINDAFFKPTNGRERARAESAKEVVHQLRGEYFILALEVSLPPSIIEELLRGASDAWQSKFQKSELRPDTARYEISFRINQDKFQVTEEHLTLFPNNELRPEHGMGLIGVDDFRRSAPWFKVLSRSLGTKVKYQAEYQAGKSSILEFGLRDNQLALAALPADHDLYPAALWLQEFLIQGSHCYEPQWPAMRLAASPRDKHAFKADGSSLPWQVHALQQSDPEGLNEWLELVQMALPSIAKIVAKQRIDDSFCYLEVTYSNGMVVPSSGLSHGTLHILALTIIPYLQNAPKIITLEEPENGIHPKAIDAVLEALKLTSDTQLWLSTHSPVVLANTEVEQIITMRFNQDGATEVLKGHEHPRLKTWKGEVDLGTLFAAGVLE", "soluble on expression in E. coli": "not soluble"},
      {"sequence": "MGSDKIHHHHHHMIVERVEEYLDRIEKINKDINALIEVKPEKVLEEAKKLEKDEKAKKKPLYGKIIVVKANINVEGYTISCASKTLENYIAPYDATVIEKIKENGGLIIGIANMDEFACGSSGETSYFGPTKNPRAKDRIPGGSSSGSAAAVSADLCDMALGSDTGGSIRNPASHCGVVGFKPSYGVVSRYGLCDLAMSFDQIGPLTKTAEDALLLTNIIKGKDLRDTTTVETKPFEKKDIKGFKVGVVKEFMDVADEKIRDKVEKAIEVFKDLGCEIVELSYKYVDLALPTYYLINYVEFFSSTRRYDGRRYGYKIEEVCGEEVLRRIMIGSMISQKEYSGKYYKNALKARNLMRNEMIKIMKDVDIIVGATVPKLPHKLGEKLTPMEMYSYDVLTVPANICGLCAGVVPCGDINGIPVGLQIQGKPFEDEKVLSAMIAFEKAME", "soluble on expression in E. coli": "not soluble"},
      {"sequence": "MGSDKIHHHHHHMIVRHKLLADLVRLWKNDQLVEKIDRLPIELSPRKSKPLGRCCVHKERAVWRYKTFPLMGLDMTDEHDEVTPLSEYARMALNRPEPSKENIMCVIDEACSSCVQINYEITNLCRGCVARSCYMNCPKDAIRFKKNGQAMIDHDTCVSCGICHKSCPYHAIVYIPVPCEESCPVKAISKDEHGVEHIDESKCIYCGKCMNACPFGAIFEISQTFDVLQHIKKGEKLVAIIAPSILGQFKTSIEQVYGAFKEIGFTDIIEVAEGAMMTTSNEAHELLEKLEEGQKFMTTSCCPSYIELVEKHMTEMKPYVSTTGSPMYYAARIAKEKHPDAKIVFVGPCVAKRKEVRRDDAVDYILTFEEVGSILDGMDIQLEQVNSFSILHTSVREAHGFAQAGGVMGAVKAYLKEEADKINAIQVSDINKKNIALLRACAKTGKAAGQFIEVMACEGGCITGPSTHNDIVSGRRQLAQELLKRKESYETMDR", "soluble on expression in E. coli": "not soluble"},
      {"sequence": "MGSDKIHHHHHHMIYKMTDKDMEILFERISKDFQSFGSKEENGDIVFGDIQRFSDISEEKSSYPPKDFLIERSENILSIPRAEKRAVFGVKSCDLRGFYIMDKQILGKDPFYTVKRENTMFINFVCEKMCSGGFCTSFGGPVLDEYDVQVLHKNGYFYVEASDKYEKYLFGFSESDDQNVFEEHKKEFESLYGRLNVDGIENRMKWSSNLWNKFANYCISCGACNYSCPTCYCVDVYDDDDGRKKEWDSCILEGFTRTAAGNVRPELSERLRQRFYHKFKYYKLSRGAYLCTGCNRCVDDCPVDIDIKEVITHDYDRE", "soluble on expression in E. coli": "not soluble"},
      {"sequence": "MGSDKIHHHHHHMIYLEQFTFPDGDRESIFFQDKVKRTCYDSYYPFQVLPGRGLERLDFDLITILYGGNGSGKSTLLNIIAEKTEIPRDAIYNKSNFFPDYVAMCEMQLKVFLPEHSRIITSDDVFDYMLNIRSLNEGIDRKREQLFDDYLEAKYSRFQLKSLADYEELKRVNHARFNSQSRFVRNELMDNAREYSNGENAFRYFTEKIDEKGLYLLDEPENSLSPKRQLELVQFIEDSARFWQCQFIIATHSPFLLALRGAKIYNLDETPVAVKRWTELENVRIYYDFFKKREREF", "soluble on expression in E. coli": "not soluble"},
      {"sequence": "MGSDKIHHHHHHMIYRNWLGIIGVACILFVSCKPTEVDVPITYYSSFLLKDTTVMLSKVEMDPMQVNARCMVWDGDKRVLVRTSTTDSIYAVFAYPEMKFLSYTGSLSEYKQILAECNEGFYLVKDDSLYLYHLTDKDLLQKTTTHFLYNSNKIRLSKIKKLNDKMYTAHAYTDPSYNDIRLNEFYMLDAENNILYPKGHYPERTEVRFKTIFDFKFAYAHEVWPKPDGSRILVNYVRTRRFRIYDLSARLLHDVCLDYASNKYVVDADPKRWTTFIRDCFVTDKYIYLLCPEGEQSSLVIVDWEGRPIARYRLDEKIFFFFIDPDRNLFCGINSNNGQSFYFLDLDIN", "soluble on expression in E. coli": "not soluble"},
      {"sequence": "MGSDKIHHHHHHMKAGLRIGLVGPLPPPSGGMANQTLQLAGLLREEHVEVELIQVNRPYRPGWIGRFKGIRAGFRLLSYVSQLWLSAGRVQLFHVMANSGWSWHLFAAPAIWIARLRGKPVIINYRGGEADSFFDKAFSWVKPSLSRANAIIVPSGFLEGVFGKRGFSASIVPNIIDLSRFGAGMRSDTSTVEAGPDSPHIIVTRNLEPIYDNETALRAFHIVRRSFPAAKLTLAGSGPERHTLEQLAFALGIGGAVTFTGRVDNEGMAAIYRSASVMLNPSLADNMPISILEALASGVPVVSTNVGGVPYLVEHEKNALLVPARDPQAMANAVLRLLNDAARTRRLIEAGMECVQRYTWPNVRVPLFRVYEQVLAAPDRSC", "soluble on expression in E. coli": "not soluble"},
      {"sequence": "MGSDKIHHHHHHMKATKRIAEATQESLHRIFTIAEAPDSTLGRLEQEMSQNLVGFLNNHIVASKNALTDIEQDFINARIPEQPEFVSDHMHHLLDKLVAQSVHTSSPSFIGHMTSALPSFILPLSKLMVGLNQNLVKVETSKAFTPLERQVLGMMHNLVYQHDDVFYKNWMHSAEHSLGAFCSGGTVANITALWVARNKLLKADGDFRGVAREGLHRAMRHYGYQDLAILVSDRGHYSLKKSADILGIGQENVIAIPTDEHNKIDCQKLADKCQQLAAQNIKVLAIVGVAGTTETGNIDPLDKIAEIAQQNQCHFHVDAAWGGATLLSNKYRPLLKGIEQADSVTIDAHKQMYVPMGAGLVIFKDPASVSAIEHHAEYILRKGSKDLGSHTLEGSRPGMAMLVYSSLHIISRPGYEMLINQAIEKAEYFADIIHQHDDFELITRPELCLLTYRYAPKSVQALLARNDDEANKSVNMLLGKLTKFIQKRQREDGRSFVSRTRIEVSRYGGEKVIVFRVVLANPLTTKEILQGILQEQCQLAQESEQFLPELLQAAK", "soluble on expression in E. coli": "not soluble"},
      {"sequence": "MGSDKIHHHHHHMKCSLGLEKCPDDTLRCFPKIEQPFGIVIFGASGDLTKRKLIPALNRLFEAGILPERFFVLGAARTKMDDKKFRSRFDANPDFLEHCSYISVDYQDPESFKQLKNTIETLIKRIDSSNLVFYLAVPPDLYIPILENLSKTGLNEKPARVVIEKPFGKDLESARRLEDTLQKYFQEDQIFRIDHYLGKETVQNILVFRFANFIFEEIWNNKFVDHVQITMAEDIGVEHRAGYFENVGLLRDIFQNHMLQILALIAMEPPSSFNGENFRNERVKLLRSIRPFPVEELESWIVRGQYGRGVVNGKEVPAYREEPGVAKDSNVETFVAMKLFIDNWRWSGVPFYLRSGKRLPKKITEVAVVFKKIPHSIFAGVPSDELEPNTIVFTLQPNEGISLEFQVKRPCPGMFPQLLSMDFRYEDYFGVKLPDAYERLLLDVILGDPTLFMRRDDLEVSWELLDPVLKAWENDPVRFSPYVYPAGTWGPREADLLIERDGRKWRKL", "soluble on expression in E. coli": "not soluble"}
    ]}
  ]
}
